The results in this text go back to PMC12266122 (2025).

To fix the notation:
B1: FLAG-TSC22D2 (full length, wild type) [human] / HA-NRBP1 WT [human] (parent complex)
chain 1: MSKMPAKKKSCFQITSVTTAQVATSITEDTESLDDPDESRTEDVSSEIFDVSRATDYGPEEVCERSSSEETLNNVGDAETPGTVSPNLLLDGQLAAAAAAPANGGGVVSARSVSGALASTLAAAATSAPAPGAPGGPQLAGSSAGPVTAAPSQPPTTCSSRFRVIKLDHGSGEPYRRGRWTCMEYYERDSDSSVLTRSGDCIRHSSTFDQTAERDSGLGATGGSVVVVVASMQGAHGPESGTDSSLTAVSQLPPSEKMSQPTPAQPQSFSVGQPQPPPPPVGGAVAQSSAPLPPFPGAATGPQPMMAAAQPSQPQGAGPGGQTLPPTNVTLAQPAMSLPPQPGPAVGAPAAQQPQQFAYPQPQIPPGHLLPVQPSGQSEYLQQHVAGLQPPSPAQPSSTGAAASPATAATLPVGTGQNASSVGAQLMGASSQPSEAMAPRTGPAQGGQVAPCQPTGVPPATVGGVVQPCLGPAGAGQPQSVPPPQMGGSGPLSAVPGGPHAVVPGVPNVPAAVPAPSVPSVSTTSVTMPNVPAPLAQSQQLSSHTPVSRSSSIIQHVGLPLAPGTHSAPTSLPQSDLSQFQTQTQPLVGQVDDTRRKSEPLPQPPLSLIAENKPVVKPPVADSLANPLQLTPMNSLATSVFSIAIPVDGDEDRNPSTAFYQAFHLNTLKESKSLWDSASGGGVVAIDNKIEQAMDLVKSHLMYAVREEVEVLKEQIKELVERNSLLERENALLKSLSSNDQLSQLPTQQANPGSTSQQQAVIAQPPQPTQPPQQPNVSSA
chain 2: not shown

The variants in this assay derive from B1. Kind of assay: co-immunoprecipitation (HA-IP) with immunoblot densitometry; HEK293 cells stably expressing HA-NRBP1, 36 hours after transfection; N = 2, n = 2; read off a plot.
For the variant chain 1 R179E, the response was about 0.09.

For chain 1 R179A, the response is about 0.22.

For the variant chain 1 R161E, chain 1 F162A, chain 1 R179E, the response is about 0.02.

As to chain 1 R161A, chain 1 F162A, the response was about 0.35.

chain 1 R161A: the response is about 0.76.
